# Patent US20240116985A1, “STAPLED PEPTIDES AND METHODS THEREOF” (priority 2020, published 2024)
# Starred links: 1 amine or outer side, 2 acyl side, 3 side chain; linkers in the order of their positions; H or OH if unused. Positions of bridges follow the written chain, without caps; N, C: chain ends. Non-standard residues stand in square brackets, D forms with d. Primed or numbered codes have the meaning given here. *: point of attachment. PyrS2″ = (S)-3-amino-1-((pent-4-en-1-yloxy)carbonyl)pyrrolidine-3-carboxylic acid (stapling residue), C=CCCCOC(=O)N1CC[C@@](N[*:1])(C(=O)[*:2])C1; B5(4) = 2,2-bis(4-pentenyl)glycine = 2-amino-2-(pent-4-en-1-yl)hept-6-enoic acid (stitching residue), C=CCCCC(CCCC=C)(N[*:1])C(=O)[*:2]; B5(5) = 2,2-bis(4-pentenyl)glycine, 2-amino-2-(pent-4-en-1-yl)hept-6-enoic acid (stitching residue), C=CCCCC(CCCC=C)(N[*:1])C(=O)[*:2]; TfeGA = (S)-2-amino-3-((carboxymethyl)(2,2,2-trifluoroethyl)amino)propanoic acid, O=C([C@H](CN(CC(=O)[*:3])CC(F)(F)F)N[*:1])[*:2]; PyrS2 = (S)-3-amino-1-((pent-4-en-1-yloxy)carbonyl)pyrrolidine-3-carboxylic acid, C=CCCCOC(=O)N1CC[C@@](N[*:1])(C(=O)[*:2])C1; B5(22) = 2-amino-2-(pent-4-en-1-yl)hept-6-enoic acid (two alkene side chains), C=CCCCC(CCCC=C)(N[*:1])C(=O)[*:2]; B5(3) = 2,2-bis(4-pentenyl)glycine (stitching residue), C=CCCCC(CCCC=C)(N[*:1])C(=O)[*:2]; B5 = 2-amino-2-(pent-4-en-1-yl)hept-6-enoic acid, C=CCCCC(CCCC=C)(N[*:1])C(=O)[*:2]; Phe(2-Cl) = N[C@@H](Cc1ccccc1Cl)C(=O)O; Bta = N[C@@H](Cc1csc2ccccc12)C(=O)O; αAllylPro = C=CC[C@@]1(C(=O)O)CCCN1; tBuAla = CC(C)(C)C[C@H](N)C(=O)O; 3Thi = N[C@@H](Cc1ccsc1)C(=O)O; Cha = N[C@@H](CC1CCCCC1)C(=O)O; S8 = C=CCCCCCC[C@](C)(N)C(=O)O; hLeu = CC(C)CC[C@H](N)C(=O)O; hSer = N[C@@H](CCO)C(=O)O; Nle = CCCC[C@H](N)C(=O)O; Dap = NC[C@H](N)C(=O)O; Aib = CC(C)(N)C(=O)O; Ms = CS(=O)(=O)*
# B1: I-545 (peptide)
# peptide: Ac-[αAllylPro]D[hLeu][B5(4)]DEAAFQ[S8]F[Bta]Q-NH2
# modifications: staple 1-4, 4-11
# B2: I-555 (peptide)
# peptide: Ac-[αAllylPro]DI[B5(4)]DDAAFN[S8][3Thi][Bta]H-NH2
# modifications: staple 1-4, 4-11
# B3: I-1094 (peptide)
# peptide: Ac-[αAllylPro]D[tBuAla][B5(4)]DEAAFT[S8][Phe(2-Cl)][Bta][dT]-NH2
# modifications: staple 1-4, 4-11; also: later eluting HPLC peak staple isomer composition
# B4: I-556 (peptide)
# peptide: Ac-[αAllylPro]DI[B5(4)]DDAAFN[S8][3Thi][Bta]H-NH2
# modifications: staple 1-4, 4-11
# B5: I-1098 (peptide)
# peptide: Ac-[αAllylPro]D[tBuAla][B5(5)]DEAAFL[S8][Phe(2-Cl)][Bta][dT]-NH2
# modifications: staple 1-4, 4-11
# B6: I-1093 (peptide)
# peptide: Ac-[αAllylPro]D[tBuAla][B5(4)]DEAAFT[S8][Phe(2-Cl)][Bta][dT]-NH2
# modifications: staple 1-4, 4-11; also: earlier eluting HPLC peak staple isomer composition
# B7: I-544 (peptide)
# peptide: Ac-[αAllylPro]D[tBuAla][B5(4)]DEAAFQ[S8]F[Bta]Q-NH2
# modifications: staple 1-4, 4-11
# B8: I-551 (peptide)
# peptide: Ac-[αAllylPro]DI[B5(4)]DDAAFN[S8][3Thi][Bta]Q-NH2
# modifications: staple 1-4, 4-11
# B9: I-1096 (peptide)
# peptide: Ac-[αAllylPro]D[tBuAla][B5(3)]DEAAFL[S8][Phe(2-Cl)][Bta]Q-NH2
# modifications: staple 1-4, 4-11
# B10: I-552 (peptide)
# peptide: Ac-[αAllylPro]DI[B5(4)]DDAAFN[S8][3Thi][Bta]Q-NH2
# modifications: staple 1-4, 4-11
# B11: I-1100 (peptide)
# peptide: Ac-[αAllylPro]D[Cha][B5(3)]DDAAFS[PyrS2″]F[Bta]S-NH2
# modifications: staple 1-4, 4-11
# B12: I-727 (peptide)
# peptide: Ac-[αAllylPro]DI[B5(4)]DEAA[tBuAla]Q[S8]F[Bta]Q-NH2
# modifications: staple 1-4, 4-11
# B13: I-743 (peptide)
# peptide: Ac-[αAllylPro]DL[B5(5)]DEAAFN[S8]F[Bta]H[Aib]-NH2
# modifications: staple 1-4, 4-11
# B14: I-736 (peptide)
# peptide: Ac-[αAllylPro]DL[B5(5)]DEAAFN[S8]F[Bta]Q[Aib]-NH2
# modifications: staple 1-4, 4-11; also: earlier-eluting staple isomer
# B15: I-728 (peptide)
# peptide: Ac-[αAllylPro]DI[B5(4)]DEAA[Nle]Q[S8]F[Bta]Q-NH2
# modifications: staple 1-4, 4-11
# B16: I-737 (peptide)
# peptide: Ac-[αAllylPro]DL[B5(5)]DEAAFN[S8]F[Bta]Q[Aib]-NH2
# modifications: staple 1-4, 4-11; also: later-eluting staple isomer
# B17: I-534 (peptide)
# peptide: Ac-[αAllylPro][Dap](Ms)A[B5(4)]DEAAFN[S8]F[Bta]Q-NH2
# modifications: staple 1-4, 4-11
# B18: I-533 (peptide)
# peptide: Ac-[αAllylPro]DA[B5(4)]D[Dap](Ms)AAFN[S8]F[Bta]Q-NH2
# modifications: staple 1-4, 4-11
# B19: I-948 (peptide)
# peptide: Ac-[αAllylPro]D[tBuAla][B5(5)]D[TfeGA]AAFN[PyrS2″][3Thi][Bta][dT]-NH2
# modifications: staple 1-4, 4-11; also: staple isomer composition, earlier-eluting HPLC peak
# B20: I-944 (peptide)
# peptide: Ac-[αAllylPro]D[tBuAla][B5(5)]D[TfeGA]AAFN[PyrS2″][3Thi][Bta]A-NH2
# modifications: staple 1-4, 4-11; also: staple isomer composition, earlier-eluting HPLC peak
# B21: I-947 (peptide)
# peptide: Ac-[αAllylPro]D[tBuAla][B5(5)]D[TfeGA]AAFN[PyrS2″][3Thi][Bta]L-NH2
# modifications: staple 1-4, 4-11; also: staple isomer composition, later-eluting HPLC peak
# B22: I-941 (peptide)
# peptide: Ac-[αAllylPro]D[tBuAla][B5(22)]D[TfeGA]AAFN[PyrS2][3Thi][Bta]S-NH2
# modifications: staple 1-4, 4-11; also: staple isomer composition, later-eluting HPLC peak
# B23: I-949 (peptide)
# peptide: Ac-[αAllylPro]D[tBuAla][B5(5)]D[TfeGA]AAFN[PyrS2″][3Thi][Bta][dT]-NH2
# modifications: staple 1-4, 4-11; also: staple isomer composition, later-eluting HPLC peak
# B24: I-951 (peptide)
# peptide: Ac-[αAllylPro]D[tBuAla][B5]D[TfeGA]AAFN[PyrS2][3Thi][Bta][hSer]-NH2
# modifications: staple 1-4, 4-11; also: later-eluting staple isomer composition
# B25: I-945 (peptide)
# peptide: Ac-[αAllylPro]D[tBuAla][B5(5)]D[TfeGA]AAFN[PyrS2″][3Thi][Bta]A-NH2
# modifications: staple 1-4, 4-11; also: staple isomer composition, later-eluting HPLC peak
# B26: I-950 (peptide)
# peptide: Ac-[αAllylPro]D[tBuAla][B5(4)]D[TfeGA]AAFN[PyrS2″][3Thi][Bta][hSer]-NH2
# modifications: staple 1-4, 4-11; also: earlier-eluting staple isomer composition
# B27: I-943 (peptide)
# peptide: Ac-[αAllylPro]D[tBuAla][B5(5)]D[TfeGA]AAFN[PyrS2″][3Thi][Bta]T-NH2
# modifications: staple 1-4, 4-11; also: staple isomer composition, later-eluting HPLC peak
# B28: I-946 (peptide)
# peptide: Ac-[αAllylPro]D[tBuAla][B5(5)]D[TfeGA]AAFN[PyrS2″][3Thi][Bta]L-NH2
# modifications: staple 1-4, 4-11; also: staple isomer composition, earlier-eluting HPLC peak
# B29: I-942 (peptide)
# peptide: Ac-[αAllylPro]D[tBuAla][B5(5)]D[TfeGA]AAFN[PyrS2″][3Thi][Bta]T-NH2
# modifications: staple 1-4, 4-11; also: staple isomer composition, earlier-eluting HPLC peak
# Biological target: full-length beta-Catenin (Uniprot ID P35222) (Homo sapiens (Human)) (UniProt P35222)
# Assay: fluorescence polarization competition; displacement of 5FAM-TCF4(10-53) from full-length beta-catenin
# Target sequence in this assay (P35222 whole entry, the tested form may be a part): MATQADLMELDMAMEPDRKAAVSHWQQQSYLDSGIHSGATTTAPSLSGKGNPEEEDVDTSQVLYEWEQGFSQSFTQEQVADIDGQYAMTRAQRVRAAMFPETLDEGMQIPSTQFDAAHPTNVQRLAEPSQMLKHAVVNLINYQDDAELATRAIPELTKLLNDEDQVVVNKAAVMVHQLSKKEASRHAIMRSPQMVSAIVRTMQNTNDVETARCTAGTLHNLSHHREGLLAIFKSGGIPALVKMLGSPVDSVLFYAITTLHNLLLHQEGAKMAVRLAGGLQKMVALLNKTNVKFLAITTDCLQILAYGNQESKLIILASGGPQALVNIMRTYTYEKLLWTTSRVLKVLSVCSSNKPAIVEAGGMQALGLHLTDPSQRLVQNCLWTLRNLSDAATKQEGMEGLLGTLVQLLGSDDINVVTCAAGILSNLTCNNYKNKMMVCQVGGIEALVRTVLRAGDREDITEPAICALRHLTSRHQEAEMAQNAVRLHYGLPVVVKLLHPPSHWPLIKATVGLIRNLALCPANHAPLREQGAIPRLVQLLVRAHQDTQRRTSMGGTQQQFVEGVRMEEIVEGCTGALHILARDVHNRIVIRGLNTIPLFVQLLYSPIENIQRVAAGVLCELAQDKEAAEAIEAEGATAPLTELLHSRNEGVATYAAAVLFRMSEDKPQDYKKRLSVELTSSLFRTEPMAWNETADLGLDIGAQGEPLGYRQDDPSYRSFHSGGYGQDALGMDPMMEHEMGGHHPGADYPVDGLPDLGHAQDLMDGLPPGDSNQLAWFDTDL
Binder,EC50 [nM],IC50 [nM]
B1,21,–
B2,41,–
B3,–,46
B4,20,–
B5,–,100
B6,–,43
B7,24,–
B8,45,–
B9,–,17
B10,15.5,–
B11,–,16

# Biological target: full-length beta-Catenin (Uniprot ID P35222) (Homo sapiens (Human)) (UniProt P35222)
# Assay: fluorescence polarization competition; full-length beta-catenin, competitor 5FAM-TCF4(10-53) probe
# Target sequence in this assay (P35222 whole entry, the tested form may be a part): as above
row,Binder,IC50 [nM]
1,B12,5000
2,B13,85
3,B14,440
4,B15,289
5,B16,353

# Biological target: full-length beta-Catenin (Uniprot ID P35222) (Homo sapiens (Human)) (UniProt P35222)
# Assay: fluorescence polarization competition; full-length beta-catenin + 5FAM-TCF4(10-53) probe as competitor
# Target sequence in this assay (P35222 2-781 limits assumed): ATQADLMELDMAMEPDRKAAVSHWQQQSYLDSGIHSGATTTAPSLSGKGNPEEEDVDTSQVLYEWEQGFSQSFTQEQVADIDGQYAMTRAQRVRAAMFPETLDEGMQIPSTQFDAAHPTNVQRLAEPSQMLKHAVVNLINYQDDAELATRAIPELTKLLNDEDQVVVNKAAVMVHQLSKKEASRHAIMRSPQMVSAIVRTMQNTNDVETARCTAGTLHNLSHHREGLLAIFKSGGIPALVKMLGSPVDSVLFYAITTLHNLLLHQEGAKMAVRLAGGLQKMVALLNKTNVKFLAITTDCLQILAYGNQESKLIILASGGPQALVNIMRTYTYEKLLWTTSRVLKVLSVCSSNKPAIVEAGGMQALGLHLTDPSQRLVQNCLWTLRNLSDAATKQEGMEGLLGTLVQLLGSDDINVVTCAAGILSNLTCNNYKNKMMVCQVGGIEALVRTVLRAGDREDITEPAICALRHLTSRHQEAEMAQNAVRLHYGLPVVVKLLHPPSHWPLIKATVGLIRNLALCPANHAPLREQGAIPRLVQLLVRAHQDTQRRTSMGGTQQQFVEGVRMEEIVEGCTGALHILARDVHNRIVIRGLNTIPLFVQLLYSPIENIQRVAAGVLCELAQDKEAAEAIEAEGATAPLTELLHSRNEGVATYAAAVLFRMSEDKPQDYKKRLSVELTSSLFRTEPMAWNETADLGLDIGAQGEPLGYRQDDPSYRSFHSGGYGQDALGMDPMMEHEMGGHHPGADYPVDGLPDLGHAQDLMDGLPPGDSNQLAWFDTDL
row,Binder,EC50 [nM]
1,B3,46
2,B5,100
3,B6,43
4,B9,17
5,B11,16

# Biological target: full-length beta-Catenin (Uniprot ID P35222) (Homo sapiens (Human)) (UniProt P35222)
# Assay: fluorescence polarization competition; full-length beta-catenin with 5FAM-labeled TCF4 residues 10-53 probe as competitor
# Target sequence in this assay (P35222 whole entry, the tested form may be a part): as the sequence (P35222 whole entry, the tested form may be a part) above
Binder,EC50 [nM],IC50 [nM]
B12,5000,–
B1,–,21
B2,–,41
B4,–,20
B13,85,–
B7,–,24
B17,–,5000
B8,–,45
B14,440,–
B15,289,–
B10,–,15.5
B18,–,155
B16,353,–

# Biological target: full-length beta-Catenin (Uniprot ID P35222) (Homo sapiens (Human)) (UniProt P35222)
# Assay: fluorescence polarization competition; full-length beta-catenin, 5FAM-TCF4(10-53) probe
# Target sequence in this assay (P35222 2-781 limits assumed): as the sequence (P35222 2-781 limits assumed) above
row,Binder,IC50 [nM]
1,B19,2430
2,B20,761
3,B21,1050
4,B22,2110
5,B23,2260
6,B24,1470
7,B25,1080
8,B26,1630
9,B27,1990
10,B28,798
11,B29,1280

# Biological target: full-length beta-Catenin (Uniprot ID P35222) (Homo sapiens (Human)) (UniProt P35222)
# Assay: fluorescence polarization competition; 10 nM full-length beta-catenin + 10 nM 5FAM-TCF4(10-53) probe
# Target sequence in this assay (P35222 whole entry, the tested form may be a part): as the sequence (P35222 whole entry, the tested form may be a part) above
row,Binder,EC50 [nM]
1,B19,2430
2,B20,761
3,B21,1050
4,B22,2110
5,B23,2260
6,B17,5000
7,B24,1470
8,B25,1080
9,B26,1630
10,B18,155
11,B27,1990
12,B28,798
13,B29,1280
